Test in all cases: cell-based or functional assay
Assay [1] deals with gut proteases of A. infusa (crude gut extract) (Agrotis infusa).
Assay [2] deals with gut proteases of A. tasmaniae (crude gut extract) (Aphodius tasmaniae).
Assay [3] has as its target gut proteases of C. obliquana (crude gut extract) (Ctenopseustis obliquana).
Assay [4] addresses gut proteases of C. rufifacies (crude gut extract) (Chrysomya rufifacies).
The target of assay [5] is gut proteases of C. zealandica (crude gut extract) (Costelytra zealandica).
In assay [6] the target is gut proteases of E. postvitiana (crude gut extract) (Epiphyas postvittana).
Assay [7] has as its target gut proteases of H. armigera (crude gut extract) (Helicoverpa armigera).
Assay [8] has as its target gut proteases of H. punctigera (crude gut extract) (Helicoverpa punctigera).
The target of assay [9] is gut proteases of L. serricata (crude gut extract) (Lucilla sericata).
Assay [10] deals with gut proteases of P. octo (crude gut extract) (Planotortrix octo).
The target of assay [11] is gut proteases of P. opercullela (crude gut extract) (Phthorimaea opercullela).
For assay [12], the target named is gut proteases of S. litura (crude gut extract) (Spodoptera litura).
Assay [13] concerns the target gut proteases of T. commodus (crude gut extract) (Teleogryllus commodus).
Assay [14] concerns the target gut proteases of W. cervinata (crude gut extract) (Wiseana cervinata).
Assay [15] concerns the target gut proteases of sugar cane grub (crude gut extract).

B1: C1, N. alata chymotrypsin inhibitor (peak 1 from HPLC) (peptide)
peptide: DRICTNCCAGTKGCKYFSDDGTFVCEGESDPRNPKACTLNCDPRIAYGVCPRS
In the case of B1, the casein hydrolysis (% control) was found to be 40.2 % control in assay [1]; 34.2 % control in assay [2]; 49.1 % control in assay [3]; 37.8 % control in assay [4]; 54.7 % control in [5]; 45.4 % control in [6]. Besides, the casein hydrolysis (% control) was found to be 32.7 % control in assay [7]; 29.3 % control in assay [8]; 100 % control in assay [9]; 67.2 % control in [10]; 100 % control in assay [11]; 33.6 % control in assay [12]. For the same molecule, the casein hydrolysis (% control) in assay [13] came out at 35 % control; in assay [14] it was 82.9 % control; in assay [15], 43.9 % control.

(Values after patent publication US20030027303A1.)
